Reference: PMC10156912, “Mechanism of assembly, activation and lysine selection by the SIN3B histone deacetylase complex” (Nature Communications, 2023)

B1: SIN3B isoform 2 (natural protein, human, UniProt O75182-2 1-1130, looked up)
chain: MAHAGGGSGGSGAGGPAGRGLSGARWGRSGSAGHEKLPVHVEDALTYLDQVKIRFGSDPATYNGFLEIMKEFKSQSIDTPGVIRRVSQLFHEHPDLIVGFNAFLPLGYRIDIPKNGKLNIQSPLTSQENSHNHGDGAEDFKQQVPYKEDKPQVPLESDSVEFNNAISYVNKIKTRFLDHPEIYRSFLEILHTYQKEQLNTRGRPFRGMSEEEVFTEVANLFRGQEDLLSEFGQFLPEAKRSLFTGNGPCEMHSVQKNEHDKTPEHSRKRSRPSLLRPVSAPAKKKMKLRGTKDLSIAAVGKYGTLQEFSFFDKVRRVLKSQEVYENFLRCIALFNQELVSGSELLQLVSPFLGKFPELFAQFKSFLGVKELSFAPPMSDRSGDGISREIDYASCKRIGSSYRALPKTYQQPKCSGRTAICKEVLNDTWVSFPSWSEDSTFVSSKKTPYEEQLHRCEDERFELDVVLETNLATIRVLESVQKKLSRMAPEDQEKFRLDDSLGGTSEVIQRRAIYRIYGDKAPEIIESLKKNPVTAVPVVLKRLKAKEEEWREAQQGFNKIWREQYEKAYLKSLDHQAVNFKQNDTKALRSKSLLNEIESVYDEHQEQHSEGRSAPSSEPHLIFVYEDRQILEDAAALISYYVKRQPAIQKEDQGTIHQLLHQFVPSLFFSQQLDLGASEESADEDRDSPQGQTTDPSERKKPAPGPHSSPPEEKGAFGDAPATEQPPLPPPAPHKPLDDVYSLFFANNNWYFFLRLHQTLCSRLLKIYRQAQKQLLEYRTEKEREKLLCEGRREKGSDPAMELRLKQPSEVELEEYYPAFLDMVRSLLEGSIDPTQYEDTLREMFTIHAYVGFTMDKLVQNIARQLHHLVSDDVCLKVVELYLNEKKRGAAGGNLSSRCVRAARETSYQWKAERCMADENCFKVMFLQRKGQVIMTIELLDTEEAQTEDPVEVQHLARYVEQYVGTEGASSSPTEGFLLKPVFLQRNLKKFRRRWQSEQARALRGEARSSWKRLVGVESACDVDCRFKLSTHKMVFIVNSEDYMYRRGTLCRAKQVQPLVLLRHHQHFEEWHSRWLEDNVTVEAASLVQDWLMGEEDEDMVPCKTLCETVHVHGLPVTRYRVQYSRRPASP
notes: SIN3B isoform 2, human, UniProt O75182-2; codon-optimised cDNA; numbers count on: isoform 2 (O75182-2); Tag removed with 3C protease; RbBP7 was co-expressed to keep SIN3B soluble; also called SIN3 scaffold subunit; corepressor SIN3B; source: High Five insect cells, co-infected with baculoviruses of each subunit; co-purified (Strep-Tactin, GSTrap, Superose 6 SEC); not shown: StrepII, C-terminal, …

Tests used:
Details in all cases: both partners purified
SIN3B isoform 2 [1] = biological target: B1; assay: cryo-EM structure; apo SIN3B complex; SIN3B^FL sample (full-length PHF12, 3.4 Å), SIN3B complex sample (PHF12 1-502, 3.7 Å) and SIN3B^core map (2.8 Å); subunits co-expressed with RbBP7 and co-purified, GraFix (glutaraldehyde) treated
HDAC2 = biological target: T1, HDAC2 (human, UniProt Q92769 1-488); assay: as above
T1 construct: HDAC2, human; codon-optimised cDNA; No tag is named for HDAC2; also called histone deacetylase 2; catalytic HDAC module; source: High Five insect cells, co-infected with baculoviruses of each subunit; co-purified (Strep-Tactin, GSTrap, Superose 6 SEC)

[2] = biological target: T2, MORF4L1 (mortality factor 4-like 1) (human, UniProt Q9UBU8 1-362); assay: as above
T2 construct: MORF4L1, human; codon-optimised cDNA; Tag removed with 3C protease; also called MRG and chromo domain-containing protein; source: High Five insect cells, co-infected with baculoviruses of each subunit; co-purified (Strep-Tactin, GSTrap, Superose 6 SEC); not shown: GST, N-terminal, cleaved

SIN3B isoform 2 [3] = biological target: B1; assay: cross-linking; XL-MS: freshly purified SIN3B complex at 1.7 μM with DSSO, on ice for 10 min, quenched with Tris pH 8, trypsin digest, LC-MS

T1 sequence (Q92769 whole entry): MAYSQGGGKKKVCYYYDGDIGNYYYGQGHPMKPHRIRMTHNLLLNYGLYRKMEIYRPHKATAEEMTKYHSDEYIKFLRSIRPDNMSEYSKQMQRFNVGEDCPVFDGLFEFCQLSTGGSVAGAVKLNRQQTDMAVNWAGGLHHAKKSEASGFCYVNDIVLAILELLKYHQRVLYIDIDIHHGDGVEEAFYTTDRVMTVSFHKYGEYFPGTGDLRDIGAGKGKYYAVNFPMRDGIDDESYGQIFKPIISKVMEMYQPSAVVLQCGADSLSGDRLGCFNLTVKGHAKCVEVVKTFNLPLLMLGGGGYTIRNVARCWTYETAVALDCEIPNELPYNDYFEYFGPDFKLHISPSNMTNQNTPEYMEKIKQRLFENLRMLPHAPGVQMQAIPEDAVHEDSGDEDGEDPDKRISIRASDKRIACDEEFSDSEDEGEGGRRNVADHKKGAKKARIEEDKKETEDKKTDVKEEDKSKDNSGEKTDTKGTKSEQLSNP
T2 sequence (Q9UBU8 whole entry, the tested form may be a part): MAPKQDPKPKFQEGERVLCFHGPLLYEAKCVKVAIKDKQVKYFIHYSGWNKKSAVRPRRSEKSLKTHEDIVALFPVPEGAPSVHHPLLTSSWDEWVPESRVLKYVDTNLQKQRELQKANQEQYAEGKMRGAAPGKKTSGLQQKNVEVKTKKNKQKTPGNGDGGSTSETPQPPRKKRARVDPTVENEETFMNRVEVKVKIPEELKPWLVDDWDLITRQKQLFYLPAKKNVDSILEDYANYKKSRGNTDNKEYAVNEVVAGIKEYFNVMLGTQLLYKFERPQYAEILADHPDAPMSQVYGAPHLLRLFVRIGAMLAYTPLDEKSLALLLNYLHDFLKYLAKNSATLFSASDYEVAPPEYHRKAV

Binder | stoichiometry N (SIN3B isoform 2 [1]) | stoichiometry N (HDAC2) | stoichiometry N [2] | binding result (SIN3B isoform 2 [3])
PHF12 (full-length) (natural protein, human, UniProt Q96QT6 1-1004, looked up, PHF12, human, full-length; subunit of the SIN3B^FL sample; also called plant homeodomain (PHD) containing protein PHF12; source: High Five insect cells, co-infected with baculoviruses of each subunit; co-purified (Strep-Tactin, GSTrap, Superose 6 SEC)) MWEKMETKTIVYDLDTSGGLMEQIQALLAPPKTDEAEKRSRKPEKEPRRSGRATNHDSCDSCKEGGDLLCCDHCPAAFHLQCCNPPLSEEMLPPGEWMCHRCTVRRKKREQKKELGHVNGLVDKSGKRTTSPSSDTDLLDRSASKTELKAIAHARILERRASRPGTPTSSASTETPTSEQNDVDEDIIDVDEEPVAAEPDYVQPQLRRPFELLIAAAMERNPTQFQLPNELTCTTALPGSSKRRRKEETTGKNVKKTQHELDHNGLVPLPVKVCFTCNRSCRVAPLIQCDYCPLLFHMDCLEPPLTAMPLGRWMCPNHIEHVVLNQKNMTLSNRCQVFDRFQDTVSQHVVKVDFLNRIHKKHPPNRRVLQSVKRRSLKVPDAIKSQYQFPPPLIAPAAIRDGELICNGIPEESQMHLLNSEHLATQAEQQEWLCSVVALQCSILKHLSAKQMPSHWDSEQTEKADIKPVIVTDSSVTTSLQTADKTPTPSHYPLSCPSGISTQNSLSCSPPHQSPALEDIGCSSCAEKSKKTPCGTANGPVNTEVKANGPHLYSSPTDSTDPRRLPGANTPLPGLSHRQGWPRPLTPPAAGGLQNHTVGIIVKTENATGPSSCPQRSLVPVPSLPPSIPSSCASIENTSTLQRKTVQSQIGPPLTDSRPLGSPPNATRVLTPPQAAGDGILATTANQRFSSPAPSSDGKVSPGTLSIGSALTVPSFPANSTAMVDLTNSLRAFMDVNGEIEINMLDEKLIKFLALQRIHQLFPSRVQPSPGSVGTHQLASGGHHIEVQRKEVQARAVFYPLLGLGGAVNMCYRTLYIGTGADMDVCLTNYGHCNYVSGKHACIFYDENTKHYELLNYSEHGTTVDNVLYSCDFSEKTPPTPPSSIVAKVQSVIRRRRHQKQDEEPSEEAAMMSSQAQGPQRRPCNCKASSSSLIGGSGAGWEGTALLHHGSYIKLGCLQFVFSITEFATKQPKGDASLLQDGVLAEKLSLKPHQGPVLRSNSVP | 1 | 1 | 1 | –
B1 | – | 1 | – | –
PHF12^ΔC-terminus (residues 1-502) (domain or fragment, human, UniProt Q96QT6 1-502, looked up, PHF12, human, residues 1-502; lacks the poorly conserved and unstructured C-terminus; subunit of the SIN3B complex sample; also called PHF12^∆C-terminus; PHF12 residues 1-502; source: High Five insect cells, co-infected with baculoviruses of each subunit; co-purified (Strep-Tactin, GSTrap, Superose 6 SEC)) MWEKMETKTIVYDLDTSGGLMEQIQALLAPPKTDEAEKRSRKPEKEPRRSGRATNHDSCDSCKEGGDLLCCDHCPAAFHLQCCNPPLSEEMLPPGEWMCHRCTVRRKKREQKKELGHVNGLVDKSGKRTTSPSSDTDLLDRSASKTELKAIAHARILERRASRPGTPTSSASTETPTSEQNDVDEDIIDVDEEPVAAEPDYVQPQLRRPFELLIAAAMERNPTQFQLPNELTCTTALPGSSKRRRKEETTGKNVKKTQHELDHNGLVPLPVKVCFTCNRSCRVAPLIQCDYCPLLFHMDCLEPPLTAMPLGRWMCPNHIEHVVLNQKNMTLSNRCQVFDRFQDTVSQHVVKVDFLNRIHKKHPPNRRVLQSVKRRSLKVPDAIKSQYQFPPPLIAPAAIRDGELICNGIPEESQMHLLNSEHLATQAEQQEWLCSVVALQCSILKHLSAKQMPSHWDSEQTEKADIKPVIVTDSSVTTSLQTADKTPTPSHYPLSCPSGIST | – | – | – | binds
